Target: C3b (UniProt P01024 749-1663; P01024 749-1663, biotin (EZ-Link Maleimide-PEG2-Biotin, after 1 mM DTT) where immobilised on streptavidin chips; none where amine-coupled)
Assay: SPR; biotin-coupled C3b

Sequence of C3b (P01024 23-667, chain 1 of 2): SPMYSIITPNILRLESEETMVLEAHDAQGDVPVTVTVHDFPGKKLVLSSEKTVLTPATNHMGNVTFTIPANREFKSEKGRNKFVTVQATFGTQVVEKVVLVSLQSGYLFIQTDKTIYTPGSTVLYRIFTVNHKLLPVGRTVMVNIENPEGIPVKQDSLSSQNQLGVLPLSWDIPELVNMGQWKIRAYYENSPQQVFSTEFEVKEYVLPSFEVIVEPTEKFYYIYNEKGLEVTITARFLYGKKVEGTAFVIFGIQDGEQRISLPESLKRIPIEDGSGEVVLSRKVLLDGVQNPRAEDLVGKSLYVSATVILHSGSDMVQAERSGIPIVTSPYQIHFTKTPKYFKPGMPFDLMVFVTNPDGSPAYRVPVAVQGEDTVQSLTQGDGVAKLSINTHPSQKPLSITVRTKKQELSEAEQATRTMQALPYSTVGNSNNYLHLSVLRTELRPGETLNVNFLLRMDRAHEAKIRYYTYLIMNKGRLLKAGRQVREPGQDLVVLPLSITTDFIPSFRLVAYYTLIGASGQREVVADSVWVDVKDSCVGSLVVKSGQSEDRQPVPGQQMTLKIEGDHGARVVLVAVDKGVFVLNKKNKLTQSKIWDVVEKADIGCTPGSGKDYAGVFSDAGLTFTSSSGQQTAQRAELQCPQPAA
Sequence of C3b (P01024 749-1663, chain 2 of 2): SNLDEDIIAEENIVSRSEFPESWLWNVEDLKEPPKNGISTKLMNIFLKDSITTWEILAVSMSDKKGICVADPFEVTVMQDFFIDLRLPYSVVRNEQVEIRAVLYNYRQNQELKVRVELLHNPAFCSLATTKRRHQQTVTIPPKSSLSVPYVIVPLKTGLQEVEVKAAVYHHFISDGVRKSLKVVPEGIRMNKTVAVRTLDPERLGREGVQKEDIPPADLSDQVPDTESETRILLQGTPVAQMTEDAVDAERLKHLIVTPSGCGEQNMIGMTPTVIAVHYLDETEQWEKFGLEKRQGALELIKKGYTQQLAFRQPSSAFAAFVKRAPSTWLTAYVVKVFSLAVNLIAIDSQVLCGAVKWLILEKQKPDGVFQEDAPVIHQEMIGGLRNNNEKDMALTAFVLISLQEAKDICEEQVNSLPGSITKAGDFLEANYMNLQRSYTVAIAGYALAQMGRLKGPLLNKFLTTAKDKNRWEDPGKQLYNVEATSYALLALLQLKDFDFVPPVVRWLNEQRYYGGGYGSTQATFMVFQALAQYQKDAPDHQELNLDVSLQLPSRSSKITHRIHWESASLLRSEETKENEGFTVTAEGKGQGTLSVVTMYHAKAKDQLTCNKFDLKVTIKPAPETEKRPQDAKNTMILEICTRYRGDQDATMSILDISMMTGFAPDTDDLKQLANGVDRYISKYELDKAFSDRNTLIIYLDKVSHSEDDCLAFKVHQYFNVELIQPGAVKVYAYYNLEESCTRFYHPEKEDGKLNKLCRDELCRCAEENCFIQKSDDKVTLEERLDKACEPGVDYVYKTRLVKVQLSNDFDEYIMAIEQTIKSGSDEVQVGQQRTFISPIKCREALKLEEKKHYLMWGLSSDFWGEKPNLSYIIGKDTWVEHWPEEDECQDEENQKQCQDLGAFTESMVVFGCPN

Binder | Kd [µM]
FH18-20 (domain or fragment) TSCVNPPTVQNAYIVSRQMSKYPSGERVRYQCRSPYEMFGDEEVMCLNGNWTEPPQCKDSTGKCGPPPPIDNGDITSFPLSVYAPASSVEYQCQNLYQLEGNKRITCRNGQWSEPPKCLHPCVISREIMENYNIALRWTAKQKLYSRTGESVEFVCKRGYRLSSRSHTLRTTCWDGKLEYPTCAKR | 9.9
FH18-20(SA) (domain or fragment) TSCVNPPTVQNAYIVSRQMSKYPSGERVRYQCRSPYEMFGDEEVMCLNGNWTEPPQCKDSTGKCGPPPPIDNGDITSFPLSVYAPASSVEYQCQNLYQLEGNKRITCRNGQWSEPPKCLHPCVISREIMENYNIALRWTAKQKLYSRTGESAEFVCKRGYRLSSRSHTLRTTCWDGKLEYPTCAKR | 10

Binders with a lower Kd, results first:

Kd [µM] | Binder
5.8 | FH18-20(LA) (domain or fragment) TSCVNPPTVQNAYIVSRQMSKYPSGERVRYQCRSPYEMFGDEEVMCLNGNWTEPPQCKDSTGKCGPPPPIDNGDITSFPLSVYAPASSVEYQCQNLYQLEGNKRITCRNGQWSEPPKCLHPCVISREIMENYNIALRWTAKQKLYLRTGESAEFVCKRGYRLSSRSHTLRTTCWDGKLEYPTCAKR
5.6 | FH18-20(LV) (domain or fragment) TSCVNPPTVQNAYIVSRQMSKYPSGERVRYQCRSPYEMFGDEEVMCLNGNWTEPPQCKDSTGKCGPPPPIDNGDITSFPLSVYAPASSVEYQCQNLYQLEGNKRITCRNGQWSEPPKCLHPCVISREIMENYNIALRWTAKQKLYLRTGESVEFVCKRGYRLSSRSHTLRTTCWDGKLEYPTCAKR
0.6 | FHR-1 (factor H-related protein 1, FHR-1*B, wild-type) (natural protein) EATFCDFPKINHGILYDEEKYKPFSQVPTGEVFYYSCEYNFVSPSKSFWTRITCTEEGWSPTPKCLRLCFFPFVENGHSESSGQTHLEGDTVQIICNTGYRLQNNENNISCVERGWSTPPKCRSTDTSCVNPPTVQNAYIVSRQMSKYPSGERVRYQCRSPYEMFGDEEVMCLNGNWTEPPQCKDSTGKCGPPPPIDNGDITSFPLSVYAPASSVEYQCQNLYQLEGNKRITCRNGQWSEPPKCLHPCVISREIMENYNIALRWTAKQKLYLRTGESAEFVCKRGYRLSSRSHTLRTTCWDGKLEYPTCAKR

Source: PMC7959842 (2021)
